Experimental data as given in patent US20180064758A1.

Columns and labels:
[1] = molecular target: Recombinant soluble CD19 ectodomain (made in 293T cells) (UniProt P15391); experiment: flow cytometry of transduced primary human T-cells stained with anti-CD3 and, for CAR, with recombinant CD19. Other quadrants: 74.7 upper left, 1.86 lower left, 0.16 lower right. The non-transduced control has 0.27 in the upper right
[2] = molecular target: CD19 (partner in the 'Cellular affinity' column); experiment: column 'Cellular affinity' of the drawn table; unit not given, the assay is not described in the filing and the format of the construct is not stated
[3] = molecular target: Recombinant soluble CD19 ectodomain (made in 293T cells) (UniProt P15391); experiment: flow cytometry of transduced primary human T-cells stained with anti-CD3 and, for CAR, with recombinant CD19. Other quadrants: 67.5 upper left, 1.43 lower left, 0.24 lower right. The non-transduced control has 0.27 in the upper right

UniProt P15391, sequence (P15391 20-291 limits assumed): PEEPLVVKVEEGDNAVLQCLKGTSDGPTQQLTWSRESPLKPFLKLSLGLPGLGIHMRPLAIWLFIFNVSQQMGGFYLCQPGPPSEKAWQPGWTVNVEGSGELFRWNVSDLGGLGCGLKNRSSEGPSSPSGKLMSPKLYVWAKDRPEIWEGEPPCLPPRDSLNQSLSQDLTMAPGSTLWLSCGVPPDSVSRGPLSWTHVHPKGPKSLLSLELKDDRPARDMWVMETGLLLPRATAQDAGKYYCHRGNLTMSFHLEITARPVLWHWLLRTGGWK

Row | Substance | Cellular affinity [2] | other results
1 | 4G7 CAR in the Campana format (CD8 stalk spacer and transmembrane domain, 41BB endodomain, CD3-Zeta endodomain), on primary human T-cells |  | % of cells in the CD3+ CAR+ quadrant (upper right) [1]: 23.3%
2 | 4G7 scFv-Fc (soluble recombinant scFv in scFv-Fc format, made in 293T cells) (Fc fusion) | 1e-09 | 
3 | Fmc63 scFv-Fc (soluble recombinant scFv in scFv-Fc format, made in 293T cells) (Fc fusion) | 2e-10 | 
4 | fmc63 CAR in the Campana format (CD8 stalk spacer and transmembrane domain, 41BB endodomain, CD3-Zeta endodomain), on primary human T-cells |  | % of cells in the CD3+ CAR+ quadrant (upper right) [3]: 30.8%
